Test: soluble on expression in E. coli; label from the status in PepcDB or PDB records

Row | Sequence | soluble on expression in E. coli
1 | MNVYRNQLIQLLPEITELKNLTTLDLSLNKLTQLPPEIGELNNLKTLYSSSNQLTQLPLEITKLKNLTELYLSSNLMIRLPLEITELKNLTTLNVYRNQLIQLPSKITELKNLKKLDLSRNQLAQLPPEIAELKNLTTLDLSRNQLAQLPPEIAELKNLTTLDLFENPLISLEHHHHHH | not soluble
2 | MNYELLTTENAPVKMWTKGVPVEADARQQLINTAKMPFIFKHIAVMPDVHLGKGSTIGSVIPTKGAIIPAAVGVDIGCGMNALRTALTAADLPENLAELRQAIETAVPHGRTTGRCKRDKGAWENPPFNVDAKWAELEAGYQWLTQKYPRFLNTNNYKHLGTLGTGNHFIEICLDESEQVWIMLHSGSRGIGNAIGTYFIDLAQKEMQDQLETLPSRDLAYFMEGTEYFDDYLRAVAWAQLFASLNRDAMMENVVTALQSITQKTVRQPQTLAMEEINCHHNYVQKEQLFGEEIYVTRKGAVSARAGQYGIIPGSMGAKSFIVRGLGNEESFCSCSHGAGRVMSRTKAKKLFSVEDQIRATAHVECRKDAEVIDEIPMAYKDIDAVMAAQSDLVEVIYTLRQVVCVKG | not soluble
3 | MNYHQYYPIDVVNGPGTRCTLFVSGCVHQCRGCYNQSTQRLDSGVLFTQEAEDKIINDLNDTRIKRRGLSLSGGDPLHPANVPHILKIVKRVREECPGKDIWVWTGYTLAELDDAQREVVQYIDVLIDGKFEQDKKDLNLEWRGSSNQIIHRFTDILEHHHHHH | not soluble
4 | MNYHQYYPVDIVNGPGTRCTLFVSGCVHECPGCYNKSTWRVNSGQPFTKAMEDQIINDLNDTRIKRQGISLSGGDPLHPQNVPDILKLVQRIRAECPGKDIWVWTGYKLDELNAAQMQVVDLINVLVDGKFVQDLKDPSLIWRGSSNQVVHHLRLEHHHHHH | soluble
5 | MNYKSPVYNVTPIHYTKLQANNYNPNTVPATELKLLEKSIWEDGFTQPIVCYPLENSDKYEIIDGFHRYTIMQTSKRIREREKELLPVVILEKDTVNRIASTIRHNRARGFHNVELMSSIVGELADSGMSDSWIMKNIGMDANEILRLKQVSGLTHLFLDKEFSKASD | not soluble
6 | MNYQDNSLKSLKLGQKTEYASQYDRTLLQPVPRALNRDGLGITQNQPFTIGADIWTAYEISWLNEKGLPQVAIADIYLDYQSQNLIESKSFKLYLNSFNQSKFADFNAVQQTMQRDLSECAQGDVKVRLNPMAVYDSQKIDHLQGDCIDEQDIEITSYEFNANWLKDCVSDEIVEEKLVSHLLKSNCLITNQPDWGTLHIHYVGKKINQEKLLRYVVSFRQHNEFHEQCVERIFCDLMHYAKPEKLTVYARYTRRGGLDINPFRSNFENLPENLRLARQ | soluble
7 | MNYRELMQKKNVRPYVLMARFGLEKENQRSTREGLLATTEHPTVFGNRSYHPYIQTDFSETQLELITPVANSGTEMLRFLDAIHDVARRSIPEDEMLWPLSMPPQLPTKDEEIKIAKLDQYDAVLYRRYLAKEYGKRKQMVSGIHFNFEYDQALIQQLYDEQSEVTDCKQFKTKVYMKVARNFLRYRWLITYLFGASPVSEDRYFRVYDDQPQEPVRSIRNSTYGYRNHDNVKVSYASLERYLEDIHRMVENGLLSEEKEFYAPVRLRGGKQMSDLPKTGIRYIELRNLDLNPFSRLGIVEDTVDFLHYFMLYLLWTDEKEEADEWVKTGDIFNEQVALGHPHETIKLIAEGDRIFSEMIDMLDALGIRKGKEVVGKYYQQLRNPQDTVSGKMWTIIQENSNSELGNIFGNQYQSMAFERPYQLAGFREMELSTQIFLFDAIQKGLEIEILDEQEQFLKLQHGEHIEYVKNANMTSKDNYVVPLIMENKTVTKKILSAAGFHVPGGEEFSSFIEAQEAHLRYANKAFVVKPKSTNYGLGITIFKEGASLEDFTEALRIAFKEDTAVLIEEFLPGTEYRFFVLDNDVKAIMLRVPANVTGDGKHTVEELVAAKNSDPLRGTNHRAPLELIQLNDLEKLMLKEQGLTIYSVPEKEQIVYLRENSNVSTGGDSIDMTDVIDDSYKQIAIEAVAALGAKICGIDLIIPDKDVKGTRDSLTYGIIEANFNPAMHMHVYPYAGQGRRLTMDVLKLLYPEVVQ | not soluble
8 | MPAFFVKAGAKKSGGGAAATRKRKNGGKSDAKSEEMAAKMSRRQKIMAATEIHSDEEDSLAGSAAASEAGSDVEYEDAHERNYREAKKLLDKIQSTTTTQEEVAEKLRDDAVARTGTQVKRVADVVELEDDLEISYKPHRLSPLCVAFSPDAKYVISCGKESSIVKFNVGTRKVVGIIKRTKKRAGVPEEPTNAHYGVIFTVAVSPDQKFIASGGFDQVVKAPKNMKILFQIWNFDSLEHIKDLSGHRGPIFSLTFQLKTNNLYSASQDRSVKMWDIDQLGLVDTMYGHQDGVQQIGVLSKQRVATVGGRDRSARLWKVEDESQLMFSGLQNCVSLDCVAMINEEHFATGSADGSIALWSFWKKRALHVRKQAHGTQNGSGRWIVALAVLPYSDLLASGSNEGELKLWKISENFRQLTPFFSYSIPGFINSINFAPNGKSIVVGAGKEHKDGRWWVDREARNQVVILPIKYTDGSDNNDVTIGDKTASGTVSGASAGGGGGIESGDESEEEEEELEEELEEEEEEIEE | not soluble
9 | MPAGLVISAPASGVGKTTLTLALARAWRNRGLSVQCFKSGPDYIDPAFHAAATGRASVNVDSWAMDRGGIAHLVGRGADADVVLAEGSMGLFDGVAARGVSGTGATADIAEMLGWPVLLVIDPSGQAQTAAAIAAGLRDYRPGVRLAGVVLNRVASPRHEDLVRRALDDAGIAVFGALPRHAEISLPKRHLGLVQAEEQAEIGKLIDEAARFVAEHVDLDAVLQSAAAWAPQPAANGLNVTPPGQRIALARDAAFSFVYPHMLEAWRAAGADISTFSPLADEAPDASADVCWLPGGYPELHAGKIAANARFCSGLRAFAETRPVHGECGGYMVLGTALTDADGVRHEMAGLLGLETSFAKRRMHLGYRLAELAAPMPGHSPGARLRGHEFHYSTIAAQPDMPLAVVHDATGAVIAETGSRRGNATGTFFHLIAEDRLEHHHHHH | soluble
10 | MPAVAFPVSSPRLLARAVQIAVLAMGALCVGCQSVDYSPPRQDRPPRLVSGLVYWGGDDKEGSRAADKISDLPVYNGEDVWQRVAQRCRLVDGQGMNERIARQRDWLLSNRGFITGASVRASPYLHFIVERLDERNMPLELALLPMIESSYNPMANSPAAAAGLWQFIPSTGRSFNLHQSATYDARRDVVASSKAAMDYLTRLHDQFNNDWLLALAAYNAGEGTVGRAIEANRRRGLPVDYWNLNLPKETQDYVPRLLALSMVVRNPNAYGVKLTPVANTPYFDVVELNHAVDLTQLAATAGVDEGQLLRLNSAFLRKKTFDGPGRLLIPKTQNRVLTTSIARITGESPVTASIPLVTPSAIVKRAAERLPAPAPVAERPVRVAERPPLPKPVQSAQLAENLPSPKTAQPLPVAQQPTAPEALQPAPAAESAPAVEIAQSAPVVEPDPLTNRIQLPRIRDDRSSPRKRDDDEYRSGPRELPTGPRVVVFASDPRQLEHHHHHH | not soluble
11 | MPCSEETPAISPSKRARPAEVGGMQLRFARLSEHATAPTRGSARAAGYDLYSAYDYTIPPMEKAVVKTDIQIALPSGCYGRVAPRSGLAAKHFIDVGAGVIDEDYRGNVGVVLFNFGKEKFEVKKGDRIAQLICERIFYPEIEEVQALDDTERGSGGFGSTGKN | soluble
12 | MPDFAKQGPIVIGGVGGSGTRLIAEIVMDMGFYLGGMLNQSKDLLYFSLLFKRPTWFSKVVTSNEQEIFRGLKILENRLTTQKELTGKDIKFIEKAAQTYRNGDLLAQKIKKNMLFPDPINRQLYRGWGWKEPNAHLFLPYIHRYFPNGKYIHVIRNGLNMAFSKNQQQLFNWGPLFGVTIPNNPMKIPNASLTYWIKANERAVMYGTEQMKGRFLLIQFDQLCVNPTPQLQKLAEFLAVDDLAIDEWSEKIDPAAAASKYKEADLEHHHHHH | not soluble
